{"source": "paper PMC7834972", "molecular_target": "SARS-CoV-2 S-I53-50A.1NT1 fusion protein (SARS-CoV-2)", "assay": "SEC; Superose 6 increase 10/300 GL in TBS with 5% glycerol; fractions between 12-14 mL pooled; blue native gel of the pooled fractions", "data": [{"substance": "SARS-CoV-2 S-I53-50A.1NT1 fusion protein", "values": [{"measurement": "stoichiometry N", "result": 3}]}]}
